Assay results from patent US20150344570A1 (published 2015).

T1: FcγRIIb extracellular domain with C-terminal His tag (human, UniProt P31994 43-217)
T1 construct: extracellular domain; Soluble receptor used as analyte in Biacore; also called FcgRIIb
T1 sequence (looked up): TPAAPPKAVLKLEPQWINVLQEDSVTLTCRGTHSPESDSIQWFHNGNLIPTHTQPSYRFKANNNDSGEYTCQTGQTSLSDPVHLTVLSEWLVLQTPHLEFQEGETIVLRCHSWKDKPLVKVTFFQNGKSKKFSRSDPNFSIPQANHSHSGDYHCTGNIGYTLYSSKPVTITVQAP

T2: FcγRIIb extracellular domain with C-terminal His tag (human, UniProt P31994 43-217)
T2 construct: extracellular domain; also called FcgRIIb; 2b; not shown: His tag attached to the C terminus
T2 sequence (looked up): T1 sequence (looked up)

B1: GpH7-A5/GpH7-B3 variant A327_09D/GpL16-k0 (antibody, human IgG1, kappa)
heavy 1: not shown
heavy 2: not shown
light: DIVMTQSPLSLPVTPGEPASISCQASESLVHSNRNTYLHWYLQKPGQSPQLLIYKVSNRFSGVPDRFSGSGSGTDFTLKISRVEAEDVGVYYCSQNTHVPPTFGQGTKVEIERTVAAPSVFIFPPSDEQLKSGTASVVCLLNNFYPREAKVQWKVDNALQSGNSQESVTEQDSKDSTYSLSSTLTLSKADYEKHKVYACEVTHQGLSSPVTKSFNRGEC
notes: Heterodimerized IgG1, mutation in the GpH7-B3 chain only; also called He Ab
B2: GpH7-A5/GpH7-B3 variant N325_20W/GpL16-k0 (antibody, human IgG1, kappa)
heavy 1: not shown
heavy 2: not shown
light: B1 light
notes: as for B1
B3: GpH7-A5/GpH7-B3 variant I332_10E/GpL16-k0 (antibody, human IgG1, kappa)
heavy 1: not shown
heavy 2: not shown
light: B1 light
notes: as for B1
B4: GpH7-A5/GpH7-B3 variant P331_03V/GpL16-k0 (antibody, human IgG1, kappa)
heavy 1: not shown
heavy 2: not shown
light: B1 light
notes: as for B1
B5: GpH7-A5/GpH7-B3 variant L328_20W/GpL16-k0 (antibody, human IgG1, kappa)
heavy 1: not shown
heavy 2: not shown
light: B1 light
notes: as for B1
B6: GpH7-A5/GpH7-B3 variant L328_13S/GpL16-k0 (antibody, human IgG1, kappa)
heavy 1: not shown
heavy 2: not shown
light: B1 light
notes: as for B1
B7: GpH7-A5/GpH7-B3 variant P331_18N/GpL16-k0 (He Ab) (antibody, human IgG1, kappa)
heavy 1: not shown
heavy 2: not shown
light: B1 light
notes: Heterodimerized antibody with the alteration in one H chain only
B8: GpH7-A5/GpH7-B3 variant N325_07I/GpL16-k0 (antibody, human IgG1, kappa)
heavy 1: not shown
heavy 2: not shown
light: B1 light
notes: as for B1
B9: GpH7-A5/GpH7-B3 variant A330_05P/GpL16-k0 (antibody, human IgG1, kappa)
heavy 1: not shown
heavy 2: not shown
light: B1 light
notes: as for B1
B10: GpH7-A5/GpH7-B3 variant I332_09D/GpL16-k0 (antibody, human IgG1, kappa)
heavy 1: not shown
heavy 2: not shown
light: B1 light
notes: as for B1
B11: GpH7-A5/GpH7-B3 variant L328_06M/GpL16-k0 (antibody, human IgG1, kappa)
heavy 1: not shown
heavy 2: not shown
light: B1 light
notes: as for B1
B12: GpH7-A5/GpH7-B3 variant N325_06M/GpL16-k0 (antibody, human IgG1, kappa)
heavy 1: not shown
heavy 2: not shown
light: B1 light
notes: as for B1
B13: GpH7-A5/GpH7-B3 variant L328_07I/GpL16-k0 (He Ab) (antibody, human IgG1, kappa)
heavy 1: not shown
heavy 2: not shown
light: B1 light
notes: as for B7
B14: GpH7-A5/GpH7-B3 variant L328_15Y/GpL16-k0 (antibody, human IgG1, kappa)
heavy 1: not shown
heavy 2: not shown
light: B1 light
notes: as for B1
B15: GpH7-A5/GpH7-B3 variant L328_19Q/GpL16-k0 (He Ab) (antibody, human IgG1, kappa)
heavy 1: not shown
heavy 2: not shown
light: B1 light
notes: as for B7
B16: GpH7-A5/GpH7-B3 variant L328_20W/GpL16-k0 (He Ab) (antibody, human IgG1, kappa)
heavy 1: not shown
heavy 2: not shown
light: B1 light
notes: as for B7
B17: GpH7-A5/GpH7-B3 variant L328_14T/GpL16-k0 (antibody, human IgG1, kappa)
heavy 1: not shown
heavy 2: not shown
light: B1 light
notes: as for B1
B18: GpH7-A5/GpH7-B3 variant L328_13S/GpL16-k0 (He Ab) (antibody, human IgG1, kappa)
heavy 1: not shown
heavy 2: not shown
light: B1 light
notes: as for B7
B19: GpH7-A5/GpH7-B3 variant A327_10E/GpL16-k0 (antibody, human IgG1, kappa)
heavy 1: not shown
heavy 2: not shown
light: B1 light
notes: as for B1
B20: GpH7-A5/GpH7-B3 variant L328_09D/GpL16-k0 (He Ab) (antibody, human IgG1, kappa)
heavy 1: not shown
heavy 2: not shown
light: B1 light
notes: as for B7
B21: GpH7-A5/GpH7-B3 variant P331_16H/GpL16-k0 (antibody, human IgG1, kappa)
heavy 1: not shown
heavy 2: not shown
light: B1 light
notes: as for B1
B22: GpH7-A5/GpH7-B3 variant P331_15Y/GpL16-k0 (He Ab) (antibody, human IgG1, kappa)
heavy 1: not shown
heavy 2: not shown
light: B1 light
notes: as for B7
B23: GpH7-A5/GpH7-B3 variant P331_20W/GpL16-k0 (He Ab) (antibody, human IgG1, kappa)
heavy 1: not shown
heavy 2: not shown
light: B1 light
notes: as for B7
B24: GpH7-A5/GpH7-B3 variant L328_09D/GpL16-k0 (antibody, human IgG1, kappa)
heavy 1: not shown
heavy 2: not shown
light: B1 light
notes: as for B1
B25: GpH7-A5/GpH7-B3 variant N325_13S/GpL16-k0 (antibody, human IgG1, kappa)
heavy 1: not shown
heavy 2: not shown
light: B1 light
notes: as for B1
B26: GpH7-A5/GpH7-B3 variant L328_04F/GpL16-k0 (antibody, human IgG1, kappa)
heavy 1: not shown
heavy 2: not shown
light: B1 light
notes: as for B1
B27: GpH7-A5/GpH7-B3 variant N325_04F/GpL16-k0 (antibody, human IgG1, kappa)
heavy 1: not shown
heavy 2: not shown
light: B1 light
notes: as for B1
B28: GpH7-A5/GpH7-B3 variant N325_08L/GpL16-k0 (antibody, human IgG1, kappa)
heavy 1: not shown
heavy 2: not shown
light: B1 light
notes: as for B1
B29: GpH7-A5/GpH7-B3 variant P331_07I/GpL16-k0 (He Ab) (antibody, human IgG1, kappa)
heavy 1: not shown
heavy 2: not shown
light: B1 light
notes: as for B7
B30: GpH7-A5/GpH7-B3 variant L328_07I/GpL16-k0 (antibody, human IgG1, kappa)
heavy 1: not shown
heavy 2: not shown
light: B1 light
notes: as for B1
B31: GpH7-A5/GpH7-B3 variant L328_10E/GpL16-k0 (antibody, human IgG1, kappa)
heavy 1: not shown
heavy 2: not shown
light: B1 light
notes: as for B1
B32: GpH7-A5/GpH7-B3 variant L328_02A/GpL16-k0 (antibody, human IgG1, kappa)
heavy 1: not shown
heavy 2: not shown
light: B1 light
notes: as for B1
B33: GpH7-A5/GpH7-B3 variant P331_16H/GpL16-k0 (He Ab) (antibody, human IgG1, kappa)
heavy 1: not shown
heavy 2: not shown
light: B1 light
notes: as for B7

Tests used:
[1] = target: T3, FcγRIa extracellular domain with C-terminal His tag (human, UniProt P12314 16-292); assay: SPR (Biacore), antibody captured, FcγR as analyte; binding relative to GpH7-A5/GpH7-B3/GpL16-k0 = 100
T3 construct: extracellular domain; Soluble receptor used as analyte in Biacore; also called FcgRI
T3 sequence (P12314 16-292): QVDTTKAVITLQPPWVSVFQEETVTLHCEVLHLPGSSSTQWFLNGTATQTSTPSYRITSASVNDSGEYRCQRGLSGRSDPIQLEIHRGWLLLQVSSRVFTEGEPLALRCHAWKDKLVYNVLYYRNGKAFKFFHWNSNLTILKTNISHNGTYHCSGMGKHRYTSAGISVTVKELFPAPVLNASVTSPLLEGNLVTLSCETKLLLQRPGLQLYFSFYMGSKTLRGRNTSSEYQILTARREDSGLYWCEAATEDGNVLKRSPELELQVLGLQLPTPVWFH

[2] = target: T1, FcγRIIb extracellular domain with …; assay: as above
[3] = target: T3, FcγRIa extracellular domain with …; assay: ratio He/Con_1a : He/Con_2b (FcγRIa over FcγRIIb), SPR (Biacore)
[4] = target: T2, FcγRIIb extracellular domain with …; assay: SPR (Biacore), antibody captured on antigen peptide chip, FcγR as analyte; relative binding
Procedure: (§1) The heterodimerized antibodies He Abs in which one of the H chains was introduced with an alteration were assayed for their binding activities to each activating FcγR and inhibitory FcγR according to the method described in Example 4. […] The activating FcγRs in FIGS. 26, 27, 28, and 29 are FcγRIa, FcγRIIa (R), FcγRIIa (H), and FcγRIIIa, respectively.
(§2) Analysis of interaction between objective antibody and the FcγR was carried out using Biacore T100 (GE Healthcare). HBS-EP+ (GE Healthcare) was used as the running buffer, and the measurement temperature was set to 25° C. Chips produced by immobilizing the antigen peptide by the amine coupling method to a Series S Sencor Chip CM5 (GE Healthcare), or alternatively, chips produced by allowing preliminarily biotinylated antigen peptides to interact with and immobilize onto a Series S Sensor Chip SA (certified) (GE Healthcare) were used. Antibodies of interest were captured onto an antigen peptide-immobilized chip, and allowed to interact to each FcγR diluted with running buffer. To regenerate and repeatedly use the chip, the antibodies captured on the chip were washed off by reacting 10 mM glycine-HCl, pH 1.5.

[5] = target: T4, FcγRIIIa extracellular domain with C-terminal His tag (human, UniProt P08637 17-208); assay: as above
T4 construct: extracellular domain; also called FcgRIIIa; 3a; not shown: His tag attached to the C terminus
T4 sequence (P08637 17-208): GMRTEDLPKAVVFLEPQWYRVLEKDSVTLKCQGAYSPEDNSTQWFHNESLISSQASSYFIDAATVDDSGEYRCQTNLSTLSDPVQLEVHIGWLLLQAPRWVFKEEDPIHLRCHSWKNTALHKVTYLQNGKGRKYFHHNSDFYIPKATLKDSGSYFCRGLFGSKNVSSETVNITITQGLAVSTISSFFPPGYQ
Procedure: as §1, §2

Row | Binder | He/Con_1a [1] | He/Con_2b [2] | He_1a/2b (Ia/IIb) [3] | He/Con_2b [4] | He/Con_3a [5]
1 | B1 | 103 control = 100 | 172 control = 100 | 0.6 |  | 
2 | B2 | 93.8 control = 100 | 169 control = 100 | 0.56 |  | 
3 | B3 | 96.3 control = 100 | 142 control = 100 | 0.68 |  | 
4 | B4 | 92 control = 100 | 119 control = 100 | 0.78 |  | 
5 | B5 | 103 control = 100 | 235 control = 100 | 0.44 |  | 
6 | B6 | 99 control = 100 | 149 control = 100 | 0.66 |  | 
7 | B7 |  |  |  | 99.2 % of GpH7-A5/GpH7-B3/GpL16-k0 (=100) | 73.4 % of GpH7-A5/GpH7-B3/GpL16-k0 (=100)
8 | B8 | 94.8 control = 100 | 171 control = 100 | 0.55 |  | 
9 | B9 | 101 control = 100 | 137 control = 100 | 0.74 |  | 
10 | B10 | 93.4 control = 100 | 147 control = 100 | 0.64 |  | 
11 | B11 | 98.7 control = 100 | 142 control = 100 | 0.7 |  | 
12 | B12 | 97.6 control = 100 | 217 control = 100 | 0.45 |  | 
13 | B13 |  |  |  | 160 % of GpH7-A5/GpH7-B3/GpL16-k0 (=100) | 84 % of GpH7-A5/GpH7-B3/GpL16-k0 (=100)
14 | B14 | 102 control = 100 | 193 control = 100 | 0.53 |  | 
15 | B15 |  |  |  | 105 % of GpH7-A5/GpH7-B3/GpL16-k0 (=100) | 81.1 % of GpH7-A5/GpH7-B3/GpL16-k0 (=100)
16 | B16 |  |  |  | 235 % of GpH7-A5/GpH7-B3/GpL16-k0 (=100) | 37.4 % of GpH7-A5/GpH7-B3/GpL16-k0 (=100)
17 | B17 | 100 control = 100 | 141 control = 100 | 0.71 |  | 

Row | Binder | He/Con_1a [1] | He/Con_2b [2] | He_1a/2b (Ia/IIb) [3] | He/Con_2b [4] | He/Con_3a [5]
18 | B18 |  |  |  | 149 % of GpH7-A5/GpH7-B3/GpL16-k0 (=100) | 71.7 % of GpH7-A5/GpH7-B3/GpL16-k0 (=100)
19 | B19 | 103 control = 100 | 140 control = 100 | 0.74 |  | 
20 | B20 |  |  |  | 199 % of GpH7-A5/GpH7-B3/GpL16-k0 (=100) | 47.8 % of GpH7-A5/GpH7-B3/GpL16-k0 (=100)
21 | B21 | 92.4 control = 100 | 116 control = 100 | 0.8 |  | 
22 | B22 |  |  |  | 114 % of GpH7-A5/GpH7-B3/GpL16-k0 (=100) | 81.9 % of GpH7-A5/GpH7-B3/GpL16-k0 (=100)
23 | B23 |  |  |  | 111 % of GpH7-A5/GpH7-B3/GpL16-k0 (=100) | 78.6 % of GpH7-A5/GpH7-B3/GpL16-k0 (=100)
24 | B24 | 102 control = 100 | 199 control = 100 | 0.51 |  | 
25 | B25 | 96.8 control = 100 | 177 control = 100 | 0.55 |  | 
26 | B26 | 97.9 control = 100 | 219 control = 100 | 0.45 |  | 
27 | B27 | 93.2 control = 100 | 143 control = 100 | 0.65 |  | 
28 | B28 | 97.5 control = 100 | 197 control = 100 | 0.5 |  | 
29 | B29 |  |  |  | 114 % of GpH7-A5/GpH7-B3/GpL16-k0 (=100) | 66 % of GpH7-A5/GpH7-B3/GpL16-k0 (=100)
30 | B30 | 99.4 control = 100 | 160 control = 100 | 0.62 |  | 
31 | B31 | 101 control = 100 | 172 control = 100 | 0.59 |  | 
32 | B32 | 98.5 control = 100 | 144 control = 100 | 0.68 |  | 
33 | B33 |  |  |  | 116 % of GpH7-A5/GpH7-B3/GpL16-k0 (=100) | 80.2 % of GpH7-A5/GpH7-B3/GpL16-k0 (=100)
